B1: SPSB4 (parent)
chain: LDMDEGTLSFIVDGQYLGVAFRGL

Variants of: B1
Test: protein stability index of a GFP-peptide fusion (GPS, HEK-293T) (PSI 1-6); higher = more stable
Conditions: c terminus: a fixed tail appended
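Also: lentivirally expressed fusions sorted by FACS into six bins by GFP to DsRed ratio, PSI derived from sequencing read proportions per bin multiplied by bin number.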

Variant | protein stability index
LDMDEGTLSFIVDTQYLGVAFRGL [G14T] | 3.42
LDMDEGTLSFIVDNQYLGVAFRGL [G14N] | 1.83
LDMDEGTLSFIVDYQYLGVAFRGL [G14Y] | 2.38
LDMDEGTLSFIVDHQYLGVAFRGL [G14H] | 3.15
LDMDEGTLSFIVDLQYLGVAFRGL [G14L] | 2.11
LDMDEGTLSFIVDIQYLGVAFRGL [G14I] | 3.85
LDMDEGTLSFIVDFQYLGVAFRGL [G14F] | 2.69
LDMDEGTLSFIVDVQYLGVAFRGL [G14V] | 1.95
LDMDEGTLSFIVDPQYLGVAFRGL [G14P] | 3.54
LDMDEGTLSFIVDWQYLGVAFRGL [G14W] | 2.71
LDMDEGTLSFIVDDQYLGVAFRGL [G14D] | 2.32
LDMDEGTLSFIVDRQYLGVAFRGL [G14R] | 2.65
LDMDEGTLSFIVDMQYLGVAFRGL [G14M] | 2.88
LDMDEGTLSFIVDEQYLGVAFRGL [G14E] | 1.91
LDMDEGTLSFIVDQQYLGVAFRGL [G14Q] | 1.5
LDMDEGTLSFIVDSQYLGVAFRGL [G14S] | 2.17
LDMDEGTLSFIVDKQYLGVAFRGL [G14K] | 2.44
LDMDEGTLSFIVDGQCLGVAFRGL [Y16C] | 2.12
LDMDEGTLSFIVDGQSLGVAFRGL [Y16S] | 1.84
LDMDEGTLSFIVDGQTLGVAFRGL [Y16T] | 2.34
LDMDEGTLSFIVDGQNLGVAFRGL [Y16N] | 1.59
LDMDEGTLSFIVDGQVLGVAFRGL [Y16V] | 3.47
LDMDEGTLSFIVDGQFLGVAFRGL [Y16F] | 3.17
LDMDEGTLSFIVDGQPLGVAFRGL [Y16P] | 2.27

Variant | protein stability index
LDMDEGTLSFIVDGQALGVAFRGL [Y16A] | 1.57
LDMDEGTLSFIVDGQELGVAFRGL [Y16E] | 2.56
LDMDEGTLSFIVDGQILGVAFRGL [Y16I] | 3.04
LDMDEGTLSFIVDGQQLGVAFRGL [Y16Q] | 1.26
LDMDEGTLSFIVDGQKLGVAFRGL [Y16K] | 1.93
LDMDEGTLSFIVDGQGLGVAFRGL [Y16G] | 1.78
LDMDEGTLSFIVDGQRLGVAFRGL [Y16R] | 1.69
LDMDEGTLSFIVDGQDLGVAFRGL [Y16D] | 1.55
LDMDEGTLSFIVDGQHLGVAFRGL [Y16H] | 2.37
LDMDEGTLSFIVDGQWLGVAFRGL [Y16W] | 1.9
LDMDEGTLSFIVDGQLLGVAFRGL [Y16L] | 2.52
LDMDEGTLSFIVDGQMLGVAFRGL [Y16M] | 2.81
LDMDEGTLSFIVDGQYLGVAFHGL [R22H] | 3.23
LDMDEGTLSFIVDGQYLGVAFQGL [R22Q] | 2.1
LDMDEGTLSFIVDGQYLGVAFLGL [R22L] | 1.81
LDMDEGTLSFIVDGQYLGVAFTGL [R22T] | 4.1
LDMDEGTLSFIVDGQYLGVAFYGL [R22Y] | 3.56
LDMDEGTLSFIVDGQYLGVAFMGL [R22M] | 1.99
LDMDEGTLSFIVDGQYLGVAFIGL [R22I] | 2.24
LDMDEGTLSFIVDGQYLGVAFSGL [R22S] | 2.46
LDMDEGTLSFIVDGQYLGVAFFGL [R22F] | 2.57
LDMDEGTLSFIVDGQYLGVAFPGL [R22P] | 2.25
LDMDEGTLSFIVDGQYLGVAFCGL [R22C] | 2.55
LDMDEGTLSFIVDGQYLGVAFWGL [R22W] | 1.31

Variant | protein stability index
LDMDEGTLSFIVDGQYLGVAFKGL [R22K] | 2.01
LDMDEGTLSFIVDGQYLGVAFAGL [R22A] | 3
LDMDEGTLSFIVDGQYLGVAFEGL [R22E] | 2.05
LDMDEGTLSFIVDGQYLGVAFNGL [R22N] | 2.46
LDMDEGTLSFIVDGQYLGVAFDGL [R22D] | 2.41
LDMDEGTLSFIVDGQYLGVAFGGL [R22G] | 2.69
LDMDEGTLSFIVDGQYLGVVFRGL [A20V] | 3.1
LDMDEGTLSFIVDGQYLGVSFRGL [A20S] | 2
LDMDEGTLSFIVDGQYLGVGFRGL [A20G] | 2.38
LDMDEGTLSFIVDGQYLGVRFRGL [A20R] | 2.47
LDMDEGTLSFIVDGQYLGVEFRGL [A20E] | 1.88
LDMDEGTLSFIVDGQYLGVIFRGL [A20I] | 2.13
LDMDEGTLSFIVDGQYLGVLFRGL [A20L] | 2.51
LDMDEGTLSFIVDGQYLGVNFRGL [A20N] | 1.68
LDMDEGTLSFIVDGQYLGVKFRGL [A20K] | 2.11
LDMDEGTLSFIVDGQYLGVYFRGL [A20Y] | 2.4
LDMDEGTLSFIVDGQYLGVDFRGL [A20D] | 1.63
LDMDEGTLSFIVDGQYLGVTFRGL [A20T] | 2.03
LDMDEGTLSFIVDGQYLGVHFRGL [A20H] | 1.89
LDMDEGTLSFIVDGQYLGVCFRGL [A20C] | 2.13
LDMDEGTLSFIVDGQYLGVWFRGL [A20W] | 2.61
LDMDEGTLSFIVDGQYLGVPFRGL [A20P] | 1.55
LDMDEGTLSFIVDGQYLGVMFRGL [A20M] | 2.48
LDMDEGTLSFIVDGQYLGVQFRGL [A20Q] | 1.86

Variant | protein stability index
LDMDEGTLSFIVDGQYPGVAFRGL [L17P] | 2.51
LDMDEGTLSFIVDGQYQGVAFRGL [L17Q] | 2.09
LDMDEGTLSFIVDGQYYGVAFRGL [L17Y] | 2.55
LDMDEGTLSFIVDGQYAGVAFRGL [L17A] | 2.15
LDMDEGTLSFIVDGQYDGVAFRGL [L17D] | 2.29
LDMDEGTLSFIVDGQYIGVAFRGL [L17I] | 3.23
LDMDEGTLSFIVDGQYEGVAFRGL [L17E] | 1.79
LDMDEGTLSFIVDGQYGGVAFRGL [L17G] | 1.47
LDMDEGTLSFIVDGQYVGVAFRGL [L17V] | 3.15
LDMDEGTLSFIVDGQYHGVAFRGL [L17H] | 1.86
LDMDEGTLSFIVDGQYFGVAFRGL [L17F] | 3.76
LDMDEGTLSFIVDGQYWGVAFRGL [L17W] | 2.72
LDMDEGTLSFIVDGQYTGVAFRGL [L17T] | 1.69
LDMDEGTLSFIVDGQYKGVAFRGL [L17K] | 1.87
LDMDEGTLSFIVDGQYSGVAFRGL [L17S] | 1.86
LDMDEGTLSFIVDGQYRGVAFRGL [L17R] | 2.03
LDMDEGTLSFIVDGQYMGVAFRGL [L17M] | 1.67
LDMDEGTLSFIVDGQYNGVAFRGL [L17N] | 1.51
LDMDEGTLSFIVDGQYLGVAWRGL [F21W] | 2.48
LDMDEGTLSFIVDGQYLGVAKRGL [F21K] | 2.39
LDMDEGTLSFIVDGQYLGVACRGL [F21C] | 1.62
LDMDEGTLSFIVDGQYLGVAPRGL [F21P] | 1.89

From the supplement of paper PMC10567573
